Measurements taken from the RNAGym collection of RNA variant scans (doi:10.7554/elife.90254).

B1: OR4K15 (parent)
chain: GUUAACGGUCAUAGGCCAUGGAAACUAGGAGCACCAUUUCGCUGCCAGUGAAGAAAUGAACAAAGAAAAUCUGGGCCAGGCAGGCAUCAAAAGAAAUAGUCUUGCGCUCAACCAGAAAGUCUGUAAUCAUUUUAAGGGUA

Variants of: B1
Test: self-cleavage, relative activity (ratio to wild type); higher = more cleavage; in vitro, sequencing; the parent is a self-cleaving ribozyme

Compared with U3C A51U, U3C A51C is lower in self-cleavage: 1.27 for the first, 0.84 for the second.

Going from A5G U38C to A5G U38A, the self-cleavage falls from 1.14 to 0.58.

Going from A4G A59G to A4G C113U, the self-cleavage falls from 1.04 to 0.19.

Compared with A5G A11G, A5C U127C is higher in self-cleavage: 0.63 for the first, 0.89 for the second.

Compared with A5G A68C, A5G A68U is lower in self-cleavage: 1.03 for the first, 0.85 for the second.

Going from A4G U139C to A5G A52U, the self-cleavage falls from 1.21 to 0.85.

Going from A5U U120C to A4U A118G, the self-cleavage rises from 0.76 to 1.08.

Going from A5U U102A to A5G G48U, the self-cleavage falls from 1.12 to 0.93.

First: U3G A52G
Second: A5U U19C
The self-cleavage of the first is lower: 0.67 for the first, 1.4 for the second.

First: A5C U108C
Second: U3C A82U
The self-cleavage of the first is lower: 0.03 for the first, 0.21 for the second.

Going from A4G A135G to A4G U127C, the self-cleavage falls from 1.18 to 0.38.

Going from A4C U43A to U3C A63U, the self-cleavage rises from 0.94 to 1.02.

First: A5C U100C
Second: A4G A66G
The self-cleavage of the first is higher: 1.25 for the first, 0.53 for the second.

First: A4G C42U
Second: A5G A55C
The self-cleavage of the first is higher: 0.81 for the first, 0.33 for the second.

First: C6U A60G
Second: A4G U37C
The self-cleavage of the first is lower: 0.8 for the first, 0.91 for the second.

Going from U3C U43C to A5U U39C, the self-cleavage rises from 0.78 to 1.1.

Compared with A5G G106C, A5G G74A is higher in self-cleavage: 0.08 for the first, 0.73 for the second.

Compared with U3C C77U, A5U A62C is higher in self-cleavage: 0.69 for the first, 1.64 for the second.

Going from A4G U132C to A4G U132A, the self-cleavage falls from 0.72 to 0.44.

Compared with A4G A55U, A5G A92G is lower in self-cleavage: 1.33 for the first, 0.53 for the second.

Compared with A4G A18G, U3C U9C is higher in self-cleavage: 1.23 for the first, 1.36 for the second.

Compared with U3C U9A, A4G A68G is higher in self-cleavage: 0.85 for the first, 0.87 for the second.

Going from A4G A62G to A5G U102C, the self-cleavage rises from 1.09 to 1.34.

Going from A4G U131C to A5G G83A, the self-cleavage rises from 1.45 to 1.54.

Compared with A5G C88A, A4G A22G is higher in self-cleavage: 0.8 for the first, 1.17 for the second.

Going from A5G U87A to A5G A18U, the self-cleavage rises from 0.62 to 1.12.

Going from A5G A18G to A5U A90G, the self-cleavage falls from 0.8 to 0.78.

First: A5C G106U
Second: U3C U132G
The self-cleavage of the first is lower: 0.07 for the first, 0.36 for the second.

First: U3C U39G
Second: U3C U26C
The self-cleavage of the first is higher: 1.72 for the first, 1.29 for the second.

Compared with A5G U130C, C6G A126G is higher in self-cleavage: 1.01 for the first, 1.2 for the second.

Going from A5G A91G to A5G A63U, the self-cleavage rises from 0.47 to 1.35.

Going from A5G A27G to U3C G48A, the self-cleavage falls from 1.02 to 0.97.

Compared with U3C G75C, U3C G75A is higher in self-cleavage: 0.08 for the first, 0.11 for the second.

First: U3C U72A
Second: A5G G21U
The self-cleavage of the first is lower: 0.17 for the first, 0.96 for the second.

Going from A5C A98G to U3G A11U, the self-cleavage rises from 0.42 to 0.74.

First: A5U U139C
Second: A4G G75A
The self-cleavage of the first is higher: 0.93 for the first, 0.33 for the second.

Compared with A5G U108A, A5G U108C is higher in self-cleavage: 0.05 for the first, 0.06 for the second.

First: A4G A54G
Second: A5G U57G
The self-cleavage of the first is lower: 0.55 for the first, 1.17 for the second.

Going from A5G U57A to A4G A110U, the self-cleavage rises from 1.09 to 1.15.

Going from U3C A30U to A5G A56U, the self-cleavage falls from 1.37 to 1.18.

Compared with A5U U70C, A4G A129G is lower in self-cleavage: 1.03 for the first, 0.78 for the second.

Going from A4G to A4U, the self-cleavage rises from 0.87 to 1.19.

First: A4C
Second: A4G A78G
The self-cleavage of the first is higher: 0.61 for the first, 0.59 for the second.

First: A5G A82G
Second: A5G A82U
The self-cleavage of the first is higher: 0.68 for the first, 0.41 for the second.

Compared with A5U G29U, A5U G29A is lower in self-cleavage: 1.39 for the first, 1.2 for the second.

Compared with C6A U38A, A4G A33G is higher in self-cleavage: 0.42 for the first, 1.14 for the second.

Going from A5U A116G to A5U A94G, the self-cleavage rises from 1.13 to 1.51.

First: A4U A13G
Second: A5G A60U
The self-cleavage of the first is higher: 1.23 for the first, 1.08 for the second.

First: A5G A60G
Second: C6A A55G
The self-cleavage of the first is lower: 1.08 for the first, 1.13 for the second.

Compared with A4U U19C, A5U G44U is higher in self-cleavage: 0.7 for the first, 0.8 for the second.

Compared with C6U A54G, A5U A114G is lower in self-cleavage: 0.92 for the first, 0.49 for the second.

First: A5G A59G
Second: A5U A82G
The self-cleavage of the first is higher: 0.99 for the first, 0.6 for the second.

First: A5G G137U
Second: A5C U102C
The self-cleavage of the first is higher: 1.62 for the first, 0.96 for the second.

Compared with A5G U122C, A5G U122A is higher in self-cleavage: 0.91 for the first, 1.34 for the second.

First: U3C C105U
Second: A4U A30U
The self-cleavage of the first is lower: 0.06 for the first, 1.05 for the second.

Compared with A5C A126G, C6A A116G is lower in self-cleavage: 1.54 for the first, 0.77 for the second.

Compared with A4G A30G, A5G A98G is higher in self-cleavage: 0.64 for the first, 0.7 for the second.

First: U3C A118G
Second: U3C A118U
The self-cleavage of the first is lower: 0.54 for the first, 1.94 for the second.

First: A4G G74C
Second: A5G A51G
The self-cleavage of the first is lower: 0.36 for the first, 1.2 for the second.

First: A5G A51U
Second: U3C A60G
The self-cleavage of the first is higher: 1.35 for the first, 0.93 for the second.

Compared with C6U A125G, C6U A118G is higher in self-cleavage: 0.53 for the first, 1.06 for the second.

Compared with C6A A94G, A5G A118G is higher in self-cleavage: 0.36 for the first, 1 for the second.

Compared with A5G A118U, A5C A33U is higher in self-cleavage: 0.56 for the first, 2.21 for the second.

Compared with A5C U38C, A5U U100C is higher in self-cleavage: 1.28 for the first, 1.64 for the second.

Compared with U3C A96U, U3C A96G is higher in self-cleavage: 1.02 for the first, 1.3 for the second.

Going from A5G G14C to A4G C77U, the self-cleavage falls from 1.57 to 1.45.

Compared with A4G G14U, A5G A64U is higher in self-cleavage: 0.67 for the first, 1.85 for the second.

First: A5G A64G
Second: U3C A114U
The self-cleavage of the first is higher: 1.16 for the first, 0.04 for the second.

First: A4G A52G
Second: U3G A30G
The self-cleavage of the first is lower: 1.08 for the first, 1.12 for the second.

First: A4G A117G
Second: A4G A117U
The self-cleavage of the first is higher: 1.18 for the first, 0.81 for the second.

Going from A5U U124C to A4G C88G, the self-cleavage rises from 0.99 to 1.46.

First: A4G C88U
Second: A4G A67G
The self-cleavage of the first is lower: 0.96 for the first, 1.16 for the second.

Compared with A5U C6U, C6A A89U is higher in self-cleavage: 1.27 for the first, 1.38 for the second.

Going from A5G G15A to C6A A11G, the self-cleavage rises from 1.02 to 2.1.

First: A4G A64C
Second: A5C A60G
The self-cleavage of the first is lower: 0.79 for the first, 1.88 for the second.

Going from C6G U87C to U3C U122C, the self-cleavage rises from 0.65 to 1.32.

Going from A4G A27G to U3C A89U, the self-cleavage falls from 1.52 to 0.54.

Compared with U3C A89G, C6U A11G is lower in self-cleavage: 0.99 for the first, 0.47 for the second.

First: C6U A33U
Second: A5G A140G
The self-cleavage of the first is higher: 1.05 for the first, 0.77 for the second.

First: U3C A140G
Second: A4G U39A
The self-cleavage of the first is lower: 0.65 for the first, 1.27 for the second.

Going from U3C C109G to A5C U122C, the self-cleavage rises from 0.04 to 0.99.

First: A4G A116U
Second: A4G A116G
The self-cleavage of the first is lower: 0.26 for the first, 0.94 for the second.

Going from A5U A51U to A4G U57C, the self-cleavage rises from 0.66 to 0.86.

Variant C6A U124A has a self-cleavage of 0.95.
